Measured values reported in patent US20190367631A1 (Regeneron, published 2019).

T1: mouse MSR1 on RAW264.7 cells (mouse, UniProt P30204 1-458)
T1 construct: whole, on cells; also called MSR1 positive RAW264.7 cells
T1 sequence (looked up): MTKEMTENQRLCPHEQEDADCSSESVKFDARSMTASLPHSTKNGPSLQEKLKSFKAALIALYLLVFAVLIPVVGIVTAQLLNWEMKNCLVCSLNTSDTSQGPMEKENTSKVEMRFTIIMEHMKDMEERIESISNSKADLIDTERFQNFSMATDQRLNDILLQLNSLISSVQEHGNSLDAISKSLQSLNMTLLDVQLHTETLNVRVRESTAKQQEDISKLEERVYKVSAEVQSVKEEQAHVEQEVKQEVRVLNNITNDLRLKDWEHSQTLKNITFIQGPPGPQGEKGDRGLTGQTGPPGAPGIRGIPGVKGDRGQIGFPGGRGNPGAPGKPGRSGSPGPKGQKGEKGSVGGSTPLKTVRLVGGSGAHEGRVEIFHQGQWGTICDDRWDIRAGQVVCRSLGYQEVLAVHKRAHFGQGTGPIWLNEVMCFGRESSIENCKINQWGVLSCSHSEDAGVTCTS

T2: full length human MSR1 with a C-terminal Myc tag, on HEK293.Myc.hMSR1 cells (human, UniProt P21757 1-451)
T2 sequence (looked up): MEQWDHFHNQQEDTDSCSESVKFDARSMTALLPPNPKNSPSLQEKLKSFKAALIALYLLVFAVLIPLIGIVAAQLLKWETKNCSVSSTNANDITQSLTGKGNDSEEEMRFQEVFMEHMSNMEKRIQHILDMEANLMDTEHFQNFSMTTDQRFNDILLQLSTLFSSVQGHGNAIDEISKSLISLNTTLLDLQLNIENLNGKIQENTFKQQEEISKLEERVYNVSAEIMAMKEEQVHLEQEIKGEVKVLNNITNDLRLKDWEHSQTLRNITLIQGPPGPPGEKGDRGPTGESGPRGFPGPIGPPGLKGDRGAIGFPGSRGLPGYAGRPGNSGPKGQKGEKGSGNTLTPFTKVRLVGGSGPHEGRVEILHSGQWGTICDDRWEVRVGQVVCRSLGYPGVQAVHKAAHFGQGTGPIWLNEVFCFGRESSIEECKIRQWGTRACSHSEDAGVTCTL

T3: human MSR1 extracellular domain expressed with a N-terminal nonahistidine tag (His9-hMSR1); R&D Systems, Cat … (human, UniProt P21757 77-451)
T3 construct: extracellular domain; also called His-hMSR1; 9xHis-hMSR1; not shown: N-terminal nonahistidine tag
T3 sequence (looked up): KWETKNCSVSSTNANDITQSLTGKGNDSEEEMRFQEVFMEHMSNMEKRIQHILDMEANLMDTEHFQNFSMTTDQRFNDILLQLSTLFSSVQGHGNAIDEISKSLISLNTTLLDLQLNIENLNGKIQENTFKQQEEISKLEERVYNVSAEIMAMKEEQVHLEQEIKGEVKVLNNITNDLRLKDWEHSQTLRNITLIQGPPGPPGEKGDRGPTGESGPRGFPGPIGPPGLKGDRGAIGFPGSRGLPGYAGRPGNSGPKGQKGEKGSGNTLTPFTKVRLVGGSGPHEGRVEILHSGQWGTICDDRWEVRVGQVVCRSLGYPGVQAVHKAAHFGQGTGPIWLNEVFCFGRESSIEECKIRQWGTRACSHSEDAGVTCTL

T4: monkey MSR1 extracellular domain expressed with a N-terminal hexahistidine-myc-myc tag (HMM-mfMSR1) (monkey (Macaca fascicularis))
T4 chain: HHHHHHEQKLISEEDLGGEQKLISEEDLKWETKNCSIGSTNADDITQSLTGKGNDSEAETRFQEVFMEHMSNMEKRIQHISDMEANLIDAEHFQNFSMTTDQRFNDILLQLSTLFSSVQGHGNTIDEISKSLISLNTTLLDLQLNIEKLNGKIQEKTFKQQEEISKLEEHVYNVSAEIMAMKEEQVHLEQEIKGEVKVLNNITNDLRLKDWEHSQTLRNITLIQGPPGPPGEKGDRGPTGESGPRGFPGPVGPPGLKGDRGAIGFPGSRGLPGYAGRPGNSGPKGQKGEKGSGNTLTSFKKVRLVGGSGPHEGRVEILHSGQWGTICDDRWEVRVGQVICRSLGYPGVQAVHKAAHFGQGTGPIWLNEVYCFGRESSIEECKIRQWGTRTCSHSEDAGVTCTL


What was measured:
[1] = target: T1, mouse MSR1 on RAW264.7 cells; test: flow cytometry, RAW264.7 cells
Description: To block binding to Fc receptors, RAW264.7 cells were incubated for 30 minutes at 4° C. with 500 pg/mL mouse IgG (Jackson ImmunoResearch, Cat #015-000-003) diluted in staining buffer, while B16F10.9 cells remained in staining buffer. […] The signal to noise (S/N) was determined by calculating the ratio of the anti-MSR1 antibodies or the control antibodies MFI to the unstained sample MFI (Table 11).

[2] = target: T2, full length human MSR1 with a …; test: cell-based or functional assay
[3] = target: T3, human MSR1 extracellular domain …; test: SPR Biacore, 37 C, antibody captured
[4] = target: T4, monkey MSR1 extracellular domain …; test: SPR Biacore, 37 C, antibody captured
[5] = target: T3, human MSR1 extracellular domain …; test: SPR Biacore, 25 C, antibody captured;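 further: rates from 1:1 fit with mass transport limitation of real-time sensorgrams, HEPES-buffered saline with EDTA and Tween-20 at pH 7.4, KD and t½ derived from the kinetic rates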
Description: (§1) Binding affinities and kinetic constants of human anti-MSR1 antibodies for different MSR1 reagents were determined by real-time surface plasmon resonance (Biacore 4000). All binding studies were performed in 10 mM HEPES, 150 mM NaCl, 3 mM EDTA, and 0.05% v/v Surfactant Tween-20, pH 7.4 (HBS-ET) running buffer at 25° C. and 37° C.
(§2) The association rate (kₐ) and dissociation rate (kd) were determined by fitting the real-time binding sensorgrams to a 1:1 binding model with mass transport limitation using Scrubber 2.0c curve-fitting software. Binding dissociation equilibrium constant (KD) and dissociative half-life (t½) were calculated from the kinetic rates as:

[6] = target: T4, monkey MSR1 extracellular domain …; test: SPR Biacore, 25 C, antibody captured;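 further: rates from 1:1 fit with mass transport limitation of real-time sensorgrams, HEPES-buffered saline with EDTA and Tween-20 at pH 7.4, KD and t½ derived from the kinetic rates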
Description: as §1, §2
Wherever % Inhibition of Dil-Acetylated LDL uptake is given: test concentration or dose not given here.
Wherever % Inhibition of Dil-Oxidized LDL uptake is given: test concentration or dose not given here.

Binder	S/N (MFI over unstained MFI) [1]	% Inhibition of Dil-Acetylated LDL uptake [2] [%]	% Inhibition of Dil-Oxidized LDL uptake [2] [%]	IC50 of Dil-Acetylated LDL uptake inhibition [2] [nM]	MFI [1] [MFI]	other results
H1H21231N-N297Q (antibody, human IgG1, V domains shown, human IgG1 Fc with N297Q point mutation) VH: EVQLVESGGGLVQPGGSLRLSCAASGFTFSDHYMDWVRQAPGKGLEWVGRTRNKANSHTTEYTASVTGRFTISRDDSRNSLYLQMNSLKTEDTAVYYCVRAGIIGTLFDYWGQGTLVTVSS VL: DIQMTQFPSSLSASVGDRVTITCRASQSISSFLNWFQQKPGKAPKFLIYAASSLQSGVPSRFSGSGSGTDFTLTISSLQPEDFATYYCQQSYSSPPITFGQGTRLEIKR	1				3580	
H1H27778P2-N297Q (antibody, human IgG1, V domains shown, human IgG1 Fc with N297Q; also called H1H27778P-N297Q) VH: EVQLVESGGGLEQPGGSLRLSCAASGFTFSSYAMSWVRQAPGKGLEWVSVISGSGGYTNYADSVKGRFTISRDNSKNTLYLQMNRLRAEDSAVYYCARHNWNYDYYGMDVWGQGTTVTVSS VL: not shown	1					
H2bM21234N (antibody, V domains shown) VH: QVQLQESGPGLVKPSETLSLTCTVTGGSISRNYWSWIRQPPGKGLEWIGYIYYSGSIDYNPSLKSRVTISVDTSKNQFSLKLSSMTAADTAVYYCARDRWNWKYGMDVWGQGTTVIVSS VL: EIVLTQSPGTLSLSPGERATLSCRASQTVRNNYLAWYHQKPGQAPRLLIYGASSRATGIPDRFSGSGSGTDFTLTISRLEPEDFTVYYCHQYGNSPWTFGQGTKMEIKR		19	61	1.8		IC50 of Dil-Oxidized LDL uptake inhibition [2]: 4.5 nM
H2aM21235N (antibody, mouse IgG2a, V domains shown) VH: EVQLVESGGGLVQPGGSLRLSCAASGFTFSDHYMDWVRQAPGKGLEWVGRTRNKANSYTTEYAASVSGRFTISRDDSKNSLYLQMNSLKTEDTAVYYCTRAGIIGTLFDYWGQGTLVTVSS VL: DIQMTQSPSSLSASVGDRVTITCRASQIIGRYLNWFQQKPGKVPKLLIYAASSLQRGVPSRFSGSGSGTDFTLTISSLQPEDFATYYCQQSYNTPPITFGQGTRLEIKR		24	64	> 100		
H1H27736P-N297Q (antibody, human IgG1, V domains shown, human IgG1 Fc with N297Q) VH: EVQLVESGGGLVQPGGSLRLSCAASGFTFSSYAMSWVRQAPGKGLEWVSSISGSGDSTFYTDSVKGRFTISRDISKNTLYLQMNSLRAEDTAVYYCAKDRLLWFGDLISPFHYWGQGTLVTVSS VL: EIVLTQSPGTLSLSPGERATLSCRASQSVSNIYLAWYQQKPAQAPRLLIYGASSRATGIPDRFSVSGSGTDFTLTISRLEPEDFAVYYCQQYGSSPRTFGQGTKVEIKR	1				3550	
H1H27761P-N297Q (antibody, V domains shown, Human IgG1 Fc with N297Q; tied by the numerical identifier; also called H1H27761P2-N297Q; H1H27761P2) VH: EVQLVESGGDLVQPGGSLRLSCSASGFTFNIYAMSWVRQAPGKGLEWVSGISGSGGSTYYADSVKGRFTISRDNSKNTLYFQMNSLRVEDTAVYYCAKKISSSSYYYYAMDVWGQGTTVTVSS VL: not shown						Kd [3]: 3.26 nM; koff [3]: 0.00222 s⁻¹; kon [3]: 681000 M⁻¹ s⁻¹; t½ [3]: 5 min; Kd [4]: 2.32 nM; koff [4]: 0.00214 s⁻¹; kon [4]: 920000 M⁻¹ s⁻¹; t½ [4]: 5 min; Kd [5]: 1.63 nM; koff [5]: 0.00051 s⁻¹; kon [5]: 312000 M⁻¹ s⁻¹; t½ [5]: 23 min; Kd [6]: 1.88 nM; koff [6]: 0.000597 s⁻¹; kon [6]: 318000 M⁻¹ s⁻¹; t½ [6]: 19 min
H1H27756P-N297Q (antibody, human IgG1, V domains shown, human IgG1 Fc with N297Q) VH: QVQLVESGGGVVQPGRSLRLSCAASGFTFSNYDMHWVRQAPGKGLEWMAVISYDGINKYYADSVKGRFTISRDNSKNTLYLQMNSLRAEDTAVYYCAKGTYSWYFDLWGRGTLVTVSS VL: not shown	1	42	76	> 100	4570	

The next lines start with results.

S/N (MFI over unstained MFI) [1]	% Inhibition of Dil-Acetylated LDL uptake [2] [%]	% Inhibition of Dil-Oxidized LDL uptake [2] [%]	IC50 of Dil-Acetylated LDL uptake inhibition [2] [nM]	MFI [1] [MFI]	Binder	other results
1					H1H27773P2-N297Q (antibody, human IgG1, V domains shown, human IgG1 Fc with N297Q; also called H1H27773P-N297Q) VH: EVQLVESGGGLVQPGGSLRLSCAASGFTFSSYAMNWVRQAPGKGLEWVSAISGSGDSTYYADSVKGRFTISRDNSRTTLSLQLNSLRAEDTAVYYCAKDRLLWFGELGSPFHYWGQGTLVTVSS VL: not shown	
	62	90	3.7		H2aM21227N (antibody, mouse IgG2a, V domains shown) VH: QVQLVQSGAEVKKPGASVKVSCKVSGYTLTELSIHWVRQVPGKGLEWMGGFDPEEGETIFAQEFRDRVTLTEDTSPDTAYMELSSLKSEDAAVYYCTTPRYCNNGICYDYWGQGTLVTVSS VL: DIQMTQSPSSLSASVGDRVTITCRASQSISNYLNWYQQKPGKAPKLLIYTASSLQSGVPSRFSGSGSGTDFTLTISSLQTEDFATYYCQQSYSNFPITFGQGTRLEIKR	IC50 of Dil-Oxidized LDL uptake inhibition [2]: 3.1 nM
	50	79	> 20		H1M21231N (antibody, V domains shown) VH: EVQLVESGGGLVQPGGSLRLSCAASGFTFSDHYMDWVRQAPGKGLEWVGRTRNKANSHTTEYTASVTGRFTISRDDSRNSLYLQMNSLKTEDTAVYYCVRAGIIGTLFDYWGQGTLVTVSS VL: DIQMTQFPSSLSASVGDRVTITCRASQSISSFLNWFQQKPGKAPKFLIYAASSLQSGVPSRFSGSGSGTDFTLTISSLQPEDFATYYCQQSYSSPPITFGQGTRLEIKR	IC50 of Dil-Oxidized LDL uptake inhibition [2]: 3.7 nM
1					H1H27771P2-N297Q (antibody, human IgG1, V domains shown, human IgG1 Fc with N297Q; also called H1H27771P-N297Q) VH: EVQLVESGGGLVQPGGSLRLSCAASGFTFSSYGMNWVRQAPGKGLEWVSVISGSGGSTYYADSVKGRFTISRDNSKNTLYLQMNSLRAEDTAVYYCAKDRWTYYYDSSGSPFDYWGQGTLVTVSS VL: not shown	
1				3790	H1H27749P-N297Q (antibody, human IgG1, V domains shown, human IgG1 Fc with N297Q) VH: QVQLQESGPGLVKPSETLSLTCTVSDGSISSYYWSWIRQPPGRGLEWIGFIYYSGSTSYNPSLKSRVTISVDTSMSQFSLKLRSVTAADTAVYYCARGSPFDYWGPGTLVTVSS VL: EIVLTQSPGTLSLSPGERATLSCRASQSVSSSYLAWYQQRPGQAPSLLISGASRRATGIPDRFSGSGSGTDFTLTIRRLEPEDFAMYYCQQYGSSPPTFGGGTKVEIKR	
1				3630	H1H27747P-N297Q (antibody, human IgG1, V domains shown, human IgG1 Fc with N297Q) VH: QVQLVESGGAVVQPGRSLRLSCAASGFTFSYYGMHWVRQAPGKGLEWVAVISYDGSKKYYADSVKGRFTISRDNSKNTLYLQMNSLRAEDTAVYYCAKDLTVDFYYGMDVWGQGTTVTVSS VL: DIQMTQSPSSVSASVGDRVTITCRASQGISSWLAWYQQKPGKAPKLLIYATSSLQSGAPSRFSGSGSGTDFTLTISSLQPEDFATYFCQQANSFPYTFGQGTKLEIKR	
1				5410	H1H27754P-N297Q (antibody, human IgG1, V domains shown, human IgG1 Fc with N297Q) VH: EVQLVESGGGLVQPGGSLRLSCAASGFTFRTYAMTWVRQAPGKGLDWVSAITGDGGNTYYADSVKGRFTISRDNSKNTLYLQMNSLRAEDTAIYYCAKDQRFSFALYYFDYWGQGTLVTVSS VL: DIQMTQSPSSVSASVGDRVTITCRASQGISSWLAWYQQKPGNAPKLLIYAAFSLQSGVPSRFSGSGSGTDFTLTISSLQPEDFATYYCQQANNFPWTFGQGTKVEIKR	
